Assay results published in US20240174744A1 (SCIRHOM, published 2024).
Positions count from the first letter of the chain named.

T1: miR2-FL-WT-T7 (mouse iRhom2 full length wild type C-terminally tagged with 3 consecutive copies of the T7 … (mouse, UniProt Q80WQ6 1-827))
T1 construct: also called mouse iRhom2 variant expressed by MEF-DKO-miR2-FL-WT-T7 cells
T1 sequence: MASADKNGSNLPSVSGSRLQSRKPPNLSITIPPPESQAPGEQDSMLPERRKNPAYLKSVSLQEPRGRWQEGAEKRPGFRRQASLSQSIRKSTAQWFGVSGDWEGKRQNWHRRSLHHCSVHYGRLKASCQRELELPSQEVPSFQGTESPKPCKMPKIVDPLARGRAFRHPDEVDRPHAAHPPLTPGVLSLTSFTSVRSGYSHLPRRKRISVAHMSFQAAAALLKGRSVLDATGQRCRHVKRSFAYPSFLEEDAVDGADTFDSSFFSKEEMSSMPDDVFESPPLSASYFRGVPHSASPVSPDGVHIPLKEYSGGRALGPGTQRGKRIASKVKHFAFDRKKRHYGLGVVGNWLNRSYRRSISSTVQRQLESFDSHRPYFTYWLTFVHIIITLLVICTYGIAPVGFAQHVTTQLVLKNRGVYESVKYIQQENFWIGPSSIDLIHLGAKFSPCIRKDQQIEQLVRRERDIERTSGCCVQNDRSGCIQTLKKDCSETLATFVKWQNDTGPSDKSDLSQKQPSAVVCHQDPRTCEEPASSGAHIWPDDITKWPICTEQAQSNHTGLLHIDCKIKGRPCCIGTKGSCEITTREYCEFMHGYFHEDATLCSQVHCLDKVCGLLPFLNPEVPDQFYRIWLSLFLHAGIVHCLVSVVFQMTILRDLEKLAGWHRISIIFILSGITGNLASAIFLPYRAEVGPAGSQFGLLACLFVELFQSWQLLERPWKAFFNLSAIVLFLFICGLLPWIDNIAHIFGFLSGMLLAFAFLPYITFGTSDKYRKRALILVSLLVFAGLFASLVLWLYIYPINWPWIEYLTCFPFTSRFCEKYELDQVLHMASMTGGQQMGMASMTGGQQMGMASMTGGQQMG

B1: antibody 50 (antibody, V domains shown)
VH: QVQLQQSGAELVRPGASVKVSCKASGYAFSNYLIEWVKQRPGQGLEWIGVINPGSGFTKYNEKFKGKATLTADKSSSTAYMQLSSLTSEDSAVYFCARGLYRAMDYWGQGTSVTVSS
VL: DIQMTQSPASQSASLGESVTITCLASQTIGTWLAWYQQKPGKSPQLLIYAAASLADGVPSRFSGGGSGTKFSFKISSLQAEDFVNYYCQQIYSTPYTFGGGTKLEIK
notes: Mouse IgG, kappa light chain; also called clone #50; purified antibody 50
B2: antibody 34 (antibody, V domains shown)
VH: QVTLKESGPGILQPSQTLSLTCSFSGFSLSTFSLGVGWIRQSSGKGLEWLAHIWWDDEKYYNPALKSRLTISKDTSKNQVFLKIANVDAADTATYYCARAYYSKSYYALDYWGQGTSVTVSS
VL: DIQMTQSPSSLSASLGERVSLTCRASQEISGYLSWLQQKPDGTIKRLIYAASTLDSGVPKRFSGSRSGSDYSLAISSLESEDFADYYCLQYANFPFTFGSGTKLEIK
notes: Mouse IgG, kappa light chain; also called clone #34; m34
B3: antibody 16 (antibody, V domains shown)
VH: QVTLKESGPGILQPSQTLSLTCSFSGFSLSTFALGVGWIRQPSGRGLEWLAHIWWDDDKYYNPALKSRLTISKDTSKNHVFLKIANVDTADTATYYCARITTYYYGMDYWGQGTSVTVSS
VL: DIVLSQSPATLSVTPGDSVSLFCRASQSIGNHLHWYQQESHASPRLLIKYASQSISGIPSRFSGSGSGTDFTLSINSVETEDFGMYFCQQSYNWPLTFGAGTKLELK
notes: Mouse IgG, kappa light chain; also called clone #16; m16
B4: antibody 3 (antibody, V domains shown)
VH: QVTLKESGPGILQPSQTLSLTCSFSGFSLTTFAMGIGWVRQPSGKGLEWLAHIWWDGEKYNNPVLKSRLTISKDTSKNQVFLRIANVDTPDTATYYCARISSIYYIIDNWGQGTSVTVSS
VL: B3 VL with S5T, D17H, F22S, G30S, H32N, Q38K, E39K, A42E, A51V
notes: Mouse IgG, kappa light chain; also called clone #3; purified antibody 3
B5: antibody 43 (antibody, V domains shown)
VH: QVALKESGPGILQPSQTLSLTCSFSGFSLSTFGMGVGWIRQSSGKGLEWLANIWWDDDKYYNPALKSRLTISKDASKNQAFLKIANVDTADTATYYCARIGNYGSNYWYFDVWGTGTTVTVSS
VL: QIVLTQSPAIMSASPGERVTMTCSANSRISYMYWYQQKPGSSPRLLIYDTSNLASGVPVRFSGSGSGTSYSLTISRMEAEDAATYNCQQWSSYPLTFGAGTKLELK
notes: Mouse IgG, kappa light chain; also called clone #43
B6: antibody 5 (antibody, V domains shown)
VH: B5 VH with A3T, S42P, N52H, D58E, P63S, D74A, A75T, G101S, D111N
VL: QVVLTQSPALMSASPGEKVTMTCSAGSSVSCMYWYQQKPGSSPRVLIYDTSNLASGVPARFTGSGSGTSYSLTISRMEAEDAASYYCQQWNSYPLTFGAGTKLELK
notes: Mouse IgG, kappa light chain; also called clone #5; purified antibody 5
B7: antibody 42 (antibody, V domains shown)
VH: B5 VH with A3T, F24L, M34R, S42P, N52H, D58E, A75T, A80V, K83R, G101Q
VL: B5 VL with Q1L, R18K, S24G, N26T, Y33F, L45V, M77V, A82V, N86Y, S91N
notes: Mouse IgG, kappa light chain; also called clone #42; m42
B8: antibody 44 (antibody, V domains shown)
VH: B5 VH with A3T, S42P, G44E, N52H, A75T, A80I, A85T, D91E, A98S
VL: QIVLTQSPAVMSASPGEKVTMTCTASSSVYYMYWYQQTPGSSPRLLIYDTSNLASGVPVRFSGSGSGTSYSLTISRMEAEDAATYYCQQWNTYPLTFGAGTKLELK
notes: Mouse IgG, kappa light chain; also called clone #44; m44
B9: antibody 22 (antibody, V domains shown)
VH: B5 VH with A3T, S42P, N52H, D58E, P63S, D74A, A75T, A80V, G101S, D111N
VL: B6 VL with C31Y, S84T
notes: Mouse IgG, kappa light chain; also called clone #22; m22

What follows are binders tested against T1, miR2-FL-WT-T7 (mouse iRhom2 full length …) (assay: FACS on cells of the row mouse iR2 wild type, vs human iR2 wild type = 100%).
Description: In brief, immortalized MEF-DKO-hiR2-FL-WT-T7 cells, MEF-DKO-miR2-FL-WT-T7 cells and MEF-DKO-hiR2-FL-R441K-T7, MEF-DKO-hiR2-FL-K443R-T7, MEF-DKO-hiR2-FL-V459I-T7, MEF-DKO-hiR2-FL-G481Q-T7, MEF-DKO-hiR2-FL-L488R-T7, MEF-DKO-hiR2-FL-L493I-T7, MEF-DKO-hiR2-FL-D496T-T7, MEF-DKO-hiR2-FL-H505R-T7, MEF-DKO-hiR2-FL-Q512L-T7, MEF-DKO-hiR2-FL-R513K-T7, MEF-DKO-hiR2-FL-D528N-T7, MEF-DKO-hiR2-FL-P533-T7, MEF-DKO-hiR2-FL-M534S-T7, MEF-DKO-hiR2-FL-G540S-T7, MEF-DKO-hiR2-FL-R543Q-T7, MEF-DKO-hiR2-FL-T544P-T7, MEF-DKO-hiR2-FL-G546A-T7, MEF-DKO-hiR2-FL-A547V-T7, MEF-DKO-hiR2-FL-R582Q-T7, MEF-DKO-hiR2-FL-F588L-T7, MEF-DKO-hiR2-FL-M591I-T7, MEF-DKO-hiR2-FL-E594K-T7, MEF-DKO-hiR2-FL-E626D-T7, MEF-DKO-hiR2-FL-L657I-T7, and MEF-DKO-hiR2-FL-H835Y-T7 cells were harvested with 10 mM EDTA in PBS, washed and resuspended in FACS buffer (PBS, 3% FBS, 0.05% sodium azide), and seeded in Nunc U-bottom 96-well plates (Thermo Fisher Scientific, USA) at approximately 3×10⁵ cells per well. To pellet cells and remove supernatants, the plates were centrifuged at 1,500 rpm and 4° C. for 3 minutes. For primary staining, cells were resuspended in 100 μl per well of either FACS buffer alone (controls) or the purified antibodies 3, 5, 16, 22, 34, 42, 43, 44, 48, and 50 of the present disclosure at 3 μg/ml FACS buffer and incubated on ice for 1 hour. Afterwards, plates were centrifuged at 1,500 rpm and 4° C. for 3 minutes and washed twice with 200 μl per well of FACS buffer. For secondary staining, cells were spun down and resuspended in 100 μl per well of PE-conjugated goat anti-mouse IgG F(ab′)2 detection fragment (Dianova, Germany) diluted 1:100 in FACS buffer. Protected from light, the cell suspensions were incubated on ice for 1 hour. Plates were then centrifuged at 1,500 rpm and 4° C. for 3 minutes and washed three times with 200 μl per well of FACS buffer. Finally, cells were resuspended in 150 μl per well of FACS buffer and analyzed using a BD Accuri™ C6 Plus flow cytometer (Becton Dickinson, Germany).

Binder | grade of loss of binding vs wild type
B1 | 3 grade (3 => 95% loss of binding vs wild type)
B2 | 3 grade (3 => 95% loss of binding vs wild type)
B3 | 3 grade (3 => 95% loss of binding vs wild type)
B4 | 3 grade (3 => 95% loss of binding vs wild type)
B5 | 3 grade (3 => 95% loss of binding vs wild type)
B6 | 3 grade (3 => 95% loss of binding vs wild type)
B7 | 3 grade (3 => 95% loss of binding vs wild type)
B8 | 3 grade (3 => 95% loss of binding vs wild type)
B9 | 3 grade (3 => 95% loss of binding vs wild type)
